Measured values from US20250122303A1, “TREATMENT AND PREVENTION OF CANCER USING HER3 ANTIGEN-BINDING MOLECULES” (Hummingbird Bioscience Pte. Ltd., priority 2021, published 2025).

Legend:
HER3-mediated signalling = assay: Phospho-western blot of HER3-mediated signalling in cancer cell lines; format: cell-based, human; conditions: N87 and FaDu cells, 50 μg/ml 4 hrs, NRG 100 ng/ml
Method: Briefly, N87 and FaDu cells were seeded in wells of a 6 well plate with 10% serum at 37° C., 5% CO2. After 16 hrs, cells were starved by culture overnight in 1% FBS cell culture medium (to reduce signalling elicited by growth factors in the serum). On the following day cells were treated with 50 μg/ml anti-HER3 antibody 10D1 for 4 hrs, followed by 15 min stimulation with NRG (100 ng/ml). Proteins were then extracted, quantified using standard Bradford protein assay, fractionated by SDS-PAGE, and transferred to nitrocellulose membranes. The membranes were then blocked and immunoblotted with the following antibodies overnight at 4° C. anti-pHER3, anti-pAKT, pan anti-HER3, pan anti-AKT and anti-beta-actin. The blots were visualized via Bio-Rad Clarity Western ECL substrate, and bands were quantified using densiometric analysis; data were normalized to beta actin controls.
N87, FaDu or OvCAR8 cells were seeded in wells in a 6 well plate with 10% serum overnight at 37° C. with 5% CO2.
Before harvesting, cells were stimulated with 100 ng/ml of NRG1. Protein extracted from cell lines were quantified using standard Bradford protein assay. Protein samples (50 μg) were fractionated by SDS-PAGE and transferred to nitrocellulose membrane. […] The blots were quantified using densiometric analysis and data was normalised to beta actin. […]

mouse HER3 = molecular target: T1, mouse HER3 (Mus musculus, UniProt Q61526); assay: ELISA cross-reactivity, mouse HER3; format: binding
T1 construct: purchased Sino Biological Inc., China
Method: ELISAs were used to determine the binding specificity of the antibodies. The antibodies were analysed for binding to human HER3 polypeptide, as well as respective mouse, rat and monkey homologues of HER3 (Sino Biological Inc., China). The antibodies were also analysed for their ability to bind to human EGFR and human HER2 (Sino Biological Inc., China).
ELISAs were carried out according to standard protocols. Briefly, 96-well plates (Nunc, Denmark) were coated with 0.1 μg/ml of target polypeptide in phosphate-buffered saline (PBS) for 16 h at 4° C. After blocking for 1 h with 1% BSA in Tris buffer saline (TBS) at room temperature, the anti-HER3 antibody was serially diluted with the highest concentration being 10 μg/ml, and added to the plate. Post 1 h incubation at room temperature, plates were washed three times with TBS containing 0.05% Tween 20 (TBS-T) and were then incubated with a HRP-conjugated anti-His antibody (Life Technologies, Inc., USA) for 1 h at room temperature. After washing, plates were developed with colorimetric detection substrate 3,3′,5,5′-tetramethylbenzidine (Turbo-TMB; Pierce, USA) for 10 min. The reaction was stopped with 2M H2SO4, and OD was measured at 450 nm. […]

[1] = test system: N87 cell-line derived mouse gastric carcinoma model; assay: N87 cell-line derived xenograft model; format: in vivo; conditions: N87, IP biweekly 500 μg, 10 doses
Method: Tumor volumes were measured 3 times a week using a digital caliper and calculated using the formula [L ×W2/2]. Study End point was considered to have been reaches once the tumors of the control arm measured >1.5 cm in length.
The model was established by subcutaneous injection of 1×10^6 N87 cells into the right flank (n=6 mice per treatment group).
10D1 was administered IP, biweekly at 500 μg per dose (for a total of 10 doses); a control treatment group received an equal volume of PBS.
Tumour cells are inserted with matrigel subcutaneously into the right flanks of female NCr nude mice.
Murine tumour efficacy studies were performed using cell-line derived xenograft (CDX) models in mice. Female NCr nude mice (5-8 weeks old, 21-29 g) were subcutaneously implanted with N87, A549, FaDu, OvCAR8 cells. Treatment was initiated when tumours reached approximately 100 to 200 mm^3. Vehicle (PBS) or therapeutic antibodies (25 mg/kg) were administered intraperitoneally (IP) at indicated time points (weekly FaDu and OvCAR8, twice weekly N87 and A549). Tumours were measured twice per week using a calliper and tumour volume (mm^3) was calculated. Each data point represents the mean tumour volume ±SEM (n=8 mice).

FaDu cells = assay: Phosphoprotein Antibody Array; format: cell-based, human; conditions: 50 μg/ml 4 hrs, NRG 100 ng/ml
Method: FaDu cells were seeded in wells of a 6 well plate with 10% serum at 37° C., 5% CO2. After 16 hrs, cells were starved by culture overnight in 1% FBS cell culture medium. On the following day cells were treated with 50 μg/ml anti-HER3 antibody 10D1 for 4 hrs, followed by 15 min stimulation with NRG (100 ng/ml). Proteins were then extracted, quantified using standard Bradford protein assay, and incubated overnight with pre-blocked Phosphoprotein Antibody Array membrane (Ray Biotech) at 4° C. The membrane was then washed with washing buffer and incubated with detection antibody cocktail for 2 hrs at room temperature, followed by washing and incubation with HRP-Conjugated anti-IgG. After 2 hrs the membrane was washed and probed using the kit detection buffer. Images were captured with Syngene Gbox imaging system, the intensity of each dot/phosphoprotein was measured and percent inhibition was calculated by comparison with intensity measured for cells treated in the same way in the absence of the antibody.

N87 cells = assay: CCK-8 proliferation assay, N87; format: cell-based, human; conditions: 5 days
Method: Briefly, N87 and FaDu cells were treated with serially diluted concentrations of anti-HER3 antibody 10D1, starting from 100 μg/ml with a 9-point half log dilution. Cell proliferation was measuring using the CCK-8 proliferation assay (Dojindo, Japan) after a period of 5 days, in accordance with the manufacturer's instructions. Briefly 1× CCK-8 solution was added to each well followed by incubation for 2 h at 37° C. The OD was then measured at 450 nm.

T1 sequence (Q61526 20-1339): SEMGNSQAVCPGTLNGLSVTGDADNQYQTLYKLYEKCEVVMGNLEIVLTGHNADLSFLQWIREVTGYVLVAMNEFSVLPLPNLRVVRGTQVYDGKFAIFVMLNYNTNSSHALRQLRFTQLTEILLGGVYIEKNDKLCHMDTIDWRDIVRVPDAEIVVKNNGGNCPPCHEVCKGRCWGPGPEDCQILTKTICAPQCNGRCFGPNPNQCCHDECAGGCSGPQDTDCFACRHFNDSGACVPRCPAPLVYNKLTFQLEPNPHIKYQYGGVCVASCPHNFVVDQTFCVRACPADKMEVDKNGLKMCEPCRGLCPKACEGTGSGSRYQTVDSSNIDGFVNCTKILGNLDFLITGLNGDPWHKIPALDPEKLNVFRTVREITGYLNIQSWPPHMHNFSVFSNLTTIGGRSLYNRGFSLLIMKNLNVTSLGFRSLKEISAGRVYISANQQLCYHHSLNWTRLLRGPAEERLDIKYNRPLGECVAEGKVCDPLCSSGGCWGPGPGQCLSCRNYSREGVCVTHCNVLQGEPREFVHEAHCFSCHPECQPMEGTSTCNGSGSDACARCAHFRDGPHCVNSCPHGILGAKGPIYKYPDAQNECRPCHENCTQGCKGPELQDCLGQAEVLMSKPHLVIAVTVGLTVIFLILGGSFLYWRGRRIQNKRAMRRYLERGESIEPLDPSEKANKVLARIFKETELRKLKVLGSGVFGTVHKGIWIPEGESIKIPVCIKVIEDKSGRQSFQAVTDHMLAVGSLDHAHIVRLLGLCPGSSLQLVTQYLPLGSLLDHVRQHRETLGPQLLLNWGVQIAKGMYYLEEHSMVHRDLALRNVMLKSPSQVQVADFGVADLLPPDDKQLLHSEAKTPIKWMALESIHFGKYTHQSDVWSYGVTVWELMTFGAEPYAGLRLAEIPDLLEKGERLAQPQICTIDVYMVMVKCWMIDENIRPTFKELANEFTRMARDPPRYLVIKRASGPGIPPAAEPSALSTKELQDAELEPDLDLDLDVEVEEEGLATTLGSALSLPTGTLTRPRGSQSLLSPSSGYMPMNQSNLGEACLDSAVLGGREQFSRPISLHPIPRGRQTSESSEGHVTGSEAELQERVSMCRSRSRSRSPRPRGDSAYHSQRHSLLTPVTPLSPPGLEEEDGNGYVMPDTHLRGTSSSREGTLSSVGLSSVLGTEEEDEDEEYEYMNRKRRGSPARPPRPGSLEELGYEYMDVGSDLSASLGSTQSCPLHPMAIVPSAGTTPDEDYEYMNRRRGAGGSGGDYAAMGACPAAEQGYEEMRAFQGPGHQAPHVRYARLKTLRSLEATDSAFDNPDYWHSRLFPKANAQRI

binding / cross-reactivity with mouse HER3 (mouse HER3): substantial cross-reactivity
B1: 10D1: anti-HER3 antibody clone, VH SEQ ID NO:24, VL SEQ ID NO:74; [1] of Example 2.2 (antibody, V domains shown)
VH: DVQLQESGPDLVKPSQSLSLTCTVTGYSITSGYSWHWIRQFPGNKLEWMGSIHYSGGTNYNPSLKSRISITRDTSKNQFFLQLNSVTTEDTATYFCARMTTAPRYPFDYWGQGTTLTVSS
VL: DIVMTQSQKFMSTSVGDRVSVTCKASQIVGSNVAWYQQKPGQSPKPLIYSASYRYSGVPDRFTASGSGTDFTLTITNVQSEDLAEYFCQQYSSHPLTFGAGTKLELK
HER3 phosphorylation and downstream signalling (HER3-mediated signalling): inhibit HER3 phosphorylation and downstream signalling
inhibition of tumor growth [1]: ~76%
intracellular signalling pathways affected (FaDu cells): inhibit P13K/AKT/mTOR and MAPK signalling
cell proliferation (N87 cells): dose-dependent inhibition of cell proliferation
